Laboratory results as given in paper PMC6543031.

Molecular target: N-tagged HA-SadB protein (Pseudomonas fluorescens F113)
Assay: SEC; gel filtration of HA-SadB, in the presence or absence of c-di-GMP; data not shown

- stoichiometry N: 2
Substance: N-tagged HA-SadB protein (natural protein)
